Data published in patent publication US20090208994A1, “GENETIC INCORPORATION OF 3-AMINOTYROSINE INTO REDUCTASES” (THE SCRIPPS RESEARCH INSTITUTE, priority 2007, published 2009).
Blank lines part the entries; values can stand above or below the molecule they belong to.

Assays:
[1] = pH 7; cited from earlier work
[2] = molecular target: T1, E. coli ribonucleotide reductase (α2β2 complex) (Escherichia coli, UniProt P00452); settings: previous studies; inactivation of wt α2β2 by N3ADP/dGTP; 20 s time scale; cited from earlier work
T1 construct: made in house; host or cells: E. coli DH10B for the NH2Y-α2s

DH10B E. coli cells = assay: Toxicity of NH2Y: growth in liquid GMML medium and on agar plates; assay type: cell-based
From the text: Toxicity and uptake of NH2Y. Evolution of an NH2Y-specific aminoacyl-tRNA synthetase (RS) requires that NH2Y is taken up by E. coli, that it is not toxic, and that it is not incorporated into proteins by any endogenous RSs. All three requirements were met by NH2Y. […] The presence of DTT however, caused cells to grow at a rate 25-35% more slowly than those in the presence of only NH2Y or absence of NH2Y/DTT.

wt β2, P69924 = molecular target: T2, wt β2, P69924
T2 chain: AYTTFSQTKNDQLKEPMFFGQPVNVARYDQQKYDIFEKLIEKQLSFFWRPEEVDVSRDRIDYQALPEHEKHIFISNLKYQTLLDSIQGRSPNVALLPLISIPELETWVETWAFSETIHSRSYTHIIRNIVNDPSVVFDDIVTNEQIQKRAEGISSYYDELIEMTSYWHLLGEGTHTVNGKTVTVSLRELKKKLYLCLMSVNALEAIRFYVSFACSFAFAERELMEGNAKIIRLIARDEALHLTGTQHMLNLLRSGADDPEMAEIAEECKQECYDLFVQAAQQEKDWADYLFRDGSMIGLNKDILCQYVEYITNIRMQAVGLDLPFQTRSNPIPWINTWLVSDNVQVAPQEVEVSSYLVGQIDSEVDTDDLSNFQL

wt β2 (E. coli) = wt β2 (E. coli) (UniProt P69924); assay: cell-based or functional assay

Molecule: N[C@@H](Cc1ccc(O)c(O)c1)C(=O)O [DOPA, 3,4-dihydroxyphenylalanine]
reduction potential lower than that of Y [1]: 260 mV

Molecule: [N-]=[N+]=N[C@@H]1[C@H](O)[C@@H](COP(=O)(O)OP(=O)(O)O)O[C@H]1n1cnc2c(N)ncnc21 [N3ADP, 2′-Azido-2′-deoxyadenosine-5′-diphosphate]
initial Y122• lost (forming an equivalent amount of N•) [2]: 50-60%

Molecule: O[C@H](CS)[C@H](O)CS (racemic) [DTT, DL-dithiothreitol]
cells grow more slowly (rate) (DH10B E. coli cells; presence of DTT (0.1 mM) vs. only NH2Y or absence of NH2Y/DTT): 25-35%

Molecule: Nc1cc(C[C@H](N)C(=O)O)ccc1O [NH2Y, 3-aminotyrosine]
effect on growth rates (DH10B E. coli cells; NH2Y (1 mM) or NH2Y/DTT in GMML medium and agar plates): not significantly affected

B1: Y730NH2Y-α2 (protein)
chain: MNQNLLVTKRDGSTERINLDKIHRVLDWAAEGLHNVSISQVELRSHIQFYDGIKTSDIHETIIKAAADLISRDAPDYQYLAARLAIFHLRKKAYGQFEPPALYDHVVKMVEMGKYDNHLLEDYTEEEFKQMDTFIDHDRDMTFSYAAVKQLEGKYLVQNRVTGEIYESAQFLYILVAACLFSNYPRETRLQYVKRFYDAVSTFKISLPTPIMSGVRTPTRQFSSCVLIECGDSLDSINATSSAIVKYVSQRAGIGINAGRIRALGSPIRGGEAFHTGCIPFYKHFQTAVKSCSQGGVRGGAATLFYPMWHLEVESLLVLKNNRGVEGNRVRHMDYGVQINKLMYTRLLKGEDITLFSPSDVPGLYDAFFADQEEFERLYTKYEKDDSIRKQRVKAVELFSLMMQERASTGRIYIQNVDHCNTHSPFDPAIAPVRQSNLCLEIALPTKPLNDVNDENGEIALCTLSAFNLGAINNLDELEELAILAVRALDALLDYQDYPIPAAKRGAMGRRTLGIGVINFAYYLAKHGKRYSDGSANNLTHKTFEAIQYYLLKASNELAKEQGACPWFNETTYAKGILPIDTYKKDLDTIANEPLHYDWEALRESIKTHGLRNSTLSALMPSETSSQISNATNGIEPPRGYVSIKASKDGILRQVVPDYEHLHDAYELLWEMPGNDGYLQLVGIMQKFIDQSISANTNYDPSRFPSGKVPMQQLLKDLLTAYKFGVKTLYYQNTRDGAEDAQDDLVPSIQDDGCESGACKI
kobs / Ampl, 1st phase, without CDP/ATP (wt β2, P69924): No changes observed.
kobs / Ampl, 2nd phase, without CDP/ATP (wt β2, P69924): No changes observed.
rate constant of formation of NH2Y• at 325 nm (fast phase) (wt β2, P69924): 13.6 ± 0.1 s⁻¹
rate constant of formation of NH2Y• at 325 nm (slow phase) (wt β2, P69924): 2.5 ± 0.1 s⁻¹
rate constant of loss of Y122• at 410 nm (fast phase) (wt β2, P69924): 12.0 ± 0.1 s⁻¹
rate constant of loss of Y122• at 410 nm (slow phase) (wt β2, P69924): 2.4 ± 0.1 s⁻¹
kobs, 1st phase (stopped-flow UV-vis, Y122• loss / NH2Y730• formation, with CDP/ATP) (wt β2, P69924; in 1/s): 12.8 ± 0.8, 20 ± 1
kobs, 2nd phase (stopped-flow UV-vis, Y122• loss / NH2Y730• formation, with CDP/ATP) (wt β2, P69924; in 1/s): 2.5 ± 0.1, 19 ± 1

Ampl, 1st phase (% of total initial Y122• trapped, with CDP/ATP) (wt β2 (E. coli)): 24%
Ampl, 2nd phase (% of total initial Y122• trapped, with CDP/ATP) (wt β2 (E. coli)): 11%
EPR spin quantitation at 10 s: share of remaining spin associated with NH2Y731•, with CDP/ATP (wt β2 (E. coli)): 45%
total initial Y122• consumed at 2 s (wt β2 (E. coli)): 35%
B2: Y731NH2Y-α2 (enzyme, E. coli, UniProt P00452 1-761, looked up)
chain: MNQNLLVTKRDGSTERINLDKIHRVLDWAAEGLHNVSISQVELRSHIQFYDGIKTSDIHETIIKAAADLISRDAPDYQYLAARLAIFHLRKKAYGQFEPPALYDHVVKMVEMGKYDNHLLEDYTEEEFKQMDTFIDHDRDMTFSYAAVKQLEGKYLVQNRVTGEIYESAQFLYILVAACLFSNYPRETRLQYVKRFYDAVSTFKISLPTPIMSGVRTPTRQFSSCVLIECGDSLDSINATSSAIVKYVSQRAGIGINAGRIRALGSPIRGGEAFHTGCIPFYKHFQTAVKSCSQGGVRGGAATLFYPMWHLEVESLLVLKNNRGVEGNRVRHMDYGVQINKLMYTRLLKGEDITLFSPSDVPGLYDAFFADQEEFERLYTKYEKDDSIRKQRVKAVELFSLMMQERASTGRIYIQNVDHCNTHSPFDPAIAPVRQSNLCLEIALPTKPLNDVNDENGEIALCTLSAFNLGAINNLDELEELAILAVRALDALLDYQDYPIPAAKRGAMGRRTLGIGVINFAYYLAKHGKRYSDGSANNLTHKTFEAIQYYLLKASNELAKEQGACPWFNETTYAKGILPIDTYKKDLDTIANEPLHYDWEALRESIKTHGLRNSTLSALMPSETSSQISNATNGIEPPRGYVSIKASKDGILRQVVPDYEHLHDAYELLWEMPGNDGYLQLVGIMQKFIDQSISANTNYDPSRFPSGKVPMQQLLKDLLTAYKFGVKTLYYQNTRDGAEDAQDDLVPSIQDDGCESGACKI
modifications: 3-aminotyrosine (NH2Y) in place of Tyr at 731 (E. coli RNR numbering)

Ampl, 1st phase (% of total initial Y122• trapped, with CDP/ATP) (wt β2 (E. coli)): 20%
Ampl, 2nd phase (% of total initial Y122• trapped, with CDP/ATP) (wt β2 (E. coli)): 19%
EPR spin quantitation at 10 s: share of remaining spin in the new signal (NH2Y730•), with CDP/ATP (wt β2 (E. coli)): 53%
total initial Y122• consumed at 2 s (wt β2 (E. coli)): 39%
B3: Y730NH2Y-α2 (enzyme, E. coli, UniProt P00452 1-761, looked up)
chain: MNQNLLVTKRDGSTERINLDKIHRVLDWAAEGLHNVSISQVELRSHIQFYDGIKTSDIHETIIKAAADLISRDAPDYQYLAARLAIFHLRKKAYGQFEPPALYDHVVKMVEMGKYDNHLLEDYTEEEFKQMDTFIDHDRDMTFSYAAVKQLEGKYLVQNRVTGEIYESAQFLYILVAACLFSNYPRETRLQYVKRFYDAVSTFKISLPTPIMSGVRTPTRQFSSCVLIECGDSLDSINATSSAIVKYVSQRAGIGINAGRIRALGSPIRGGEAFHTGCIPFYKHFQTAVKSCSQGGVRGGAATLFYPMWHLEVESLLVLKNNRGVEGNRVRHMDYGVQINKLMYTRLLKGEDITLFSPSDVPGLYDAFFADQEEFERLYTKYEKDDSIRKQRVKAVELFSLMMQERASTGRIYIQNVDHCNTHSPFDPAIAPVRQSNLCLEIALPTKPLNDVNDENGEIALCTLSAFNLGAINNLDELEELAILAVRALDALLDYQDYPIPAAKRGAMGRRTLGIGVINFAYYLAKHGKRYSDGSANNLTHKTFEAIQYYLLKASNELAKEQGACPWFNETTYAKGILPIDTYKKDLDTIANEPLHYDWEALRESIKTHGLRNSTLSALMPSETSSQISNATNGIEPPRGYVSIKASKDGILRQVVPDYEHLHDAYELLWEMPGNDGYLQLVGIMQKFIDQSISANTNYDPSRFPSGKVPMQQLLKDLLTAYKFGVKTLYYQNTRDGAEDAQDDLVPSIQDDGCESGACKI
modifications: 3-aminotyrosine (NH2Y) in place of Tyr at 730 (E. coli RNR numbering)
